Reference: US20210139548A1 (published 2021)
*1 amine or outer side, *2 acyl side, *3 side chain or, on linkers, in order; H or OH if unused. Side-chain parts run from the residue outwards. The star is where a group is joined. C18 diacid = O=C(O)CCCCCCCCCCCCCCCCC(=O)*; γGlu = O=C(O)[C@H](CCC(=O)[*:2])N[*:1]; Isovaleryl = CC(C)CC(=O)*; AEEA = NCCOCCOCC(=O)O

T1: human neuropeptide Y2 receptor (human, UniProt P49146 1-381)
T1 construct: whole, on cells; also called hNPY2 receptor; hNPY2-R
T1 sequence (looked up): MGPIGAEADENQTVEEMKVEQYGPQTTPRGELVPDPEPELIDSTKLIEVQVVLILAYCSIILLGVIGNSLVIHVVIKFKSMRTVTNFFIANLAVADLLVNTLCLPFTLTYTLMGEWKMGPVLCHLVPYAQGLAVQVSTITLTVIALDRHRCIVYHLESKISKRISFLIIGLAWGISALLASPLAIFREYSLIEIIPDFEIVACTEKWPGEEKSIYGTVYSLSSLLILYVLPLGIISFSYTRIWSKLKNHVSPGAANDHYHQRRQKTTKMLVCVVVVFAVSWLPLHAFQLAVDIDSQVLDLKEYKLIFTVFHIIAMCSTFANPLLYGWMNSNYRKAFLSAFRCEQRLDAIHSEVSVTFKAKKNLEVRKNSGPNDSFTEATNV

B1: Compound 205 (peptide)
peptide: Isovaleryl-APEK([AEEA-AEEA-γGlu-C18 diacid])PEEEASPEELQKYYVSLRHYYNWLTRQRY-NH2
SMILES: CC(C)CC(=O)N[C@@H](C)C(=O)N1CCC[C@H]1C(=O)N[C@@H](CCC(=O)O)C(=O)N[C@@H](CCCCNC(=O)COCCOCCNC(=O)COCCOCCNC(=O)CC[C@H](NC(=O)CCCCCCCCCCCCCCCCC(=O)O)C(=O)O)C(=O)N1CCC[C@H]1C(=O)N[C@@H](CCC(=O)O)C(=O)N[C@@H](CCC(=O)O)C(=O)N[C@@H](CCC(=O)O)C(=O)N[C@@H](C)C(=O)N[C@@H](CO)C(=O)N1CCC[C@H]1C(=O)N[C@@H](CCC(=O)O)C(=O)N[C@@H](CCC(=O)O)C(=O)N[C@@H](CC(C)C)C(=O)N[C@@H](CCC(N)=O)C(=O)N[C@@H](CCCCN)C(=O)N[C@@H](Cc1ccc(O)cc1)C(=O)N[C@@H](Cc1ccc(O)cc1)C(=O)N[C@H](C(=O)N[C@@H](CO)C(=O)N[C@@H](CC(C)C)C(=O)N[C@@H](CCCNC(=N)N)C(=O)N[C@@H](Cc1c[nH]cn1)C(=O)N[C@@H](Cc1ccc(O)cc1)C(=O)N[C@@H](Cc1ccc(O)cc1)C(=O)N[C@@H](CC(N)=O)C(=O)N[C@@H](Cc1c[nH]c2ccccc12)C(=O)N[C@@H](CC(C)C)C(=O)N[C@H](C(=O)N[C@@H](CCCNC(=N)N)C(=O)N[C@@H](CCC(N)=O)C(=O)N[C@@H](CCCNC(=N)N)C(=O)N[C@@H](Cc1ccc(O)cc1)C(N)=O)[C@@H](C)O)C(C)C
B2: Compound 207 (peptide)
peptide: Isovaleryl-APAK([AEEA-AEEA-γGlu-C18 diacid])PEADAEPEELQRYYVSLRHYYNWLTRQRY-NH2
SMILES: CC(C)CC(=O)N[C@@H](C)C(=O)N1CCC[C@H]1C(=O)N[C@@H](C)C(=O)N[C@@H](CCCCNC(=O)COCCOCCNC(=O)COCCOCCNC(=O)CC[C@H](NC(=O)CCCCCCCCCCCCCCCCC(=O)O)C(=O)O)C(=O)N1CCC[C@H]1C(=O)N[C@@H](CCC(=O)O)C(=O)N[C@@H](C)C(=O)N[C@@H](CC(=O)O)C(=O)N[C@@H](C)C(=O)N[C@@H](CCC(=O)O)C(=O)N1CCC[C@H]1C(=O)N[C@@H](CCC(=O)O)C(=O)N[C@@H](CCC(=O)O)C(=O)N[C@@H](CC(C)C)C(=O)N[C@@H](CCC(N)=O)C(=O)N[C@@H](CCCNC(=N)N)C(=O)N[C@@H](Cc1ccc(O)cc1)C(=O)N[C@@H](Cc1ccc(O)cc1)C(=O)N[C@H](C(=O)N[C@@H](CO)C(=O)N[C@@H](CC(C)C)C(=O)N[C@@H](CCCNC(=N)N)C(=O)N[C@@H](Cc1c[nH]cn1)C(=O)N[C@@H](Cc1ccc(O)cc1)C(=O)N[C@@H](Cc1ccc(O)cc1)C(=O)N[C@@H](CC(N)=O)C(=O)N[C@@H](Cc1c[nH]c2ccccc12)C(=O)N[C@@H](CC(C)C)C(=O)N[C@H](C(=O)N[C@@H](CCCNC(=N)N)C(=O)N[C@@H](CCC(N)=O)C(=O)N[C@@H](CCCNC(=N)N)C(=O)N[C@@H](Cc1ccc(O)cc1)C(N)=O)[C@@H](C)O)C(C)C
B3: Compound 208 (peptide)
peptide: Isovaleryl-APEK([AEEA-AEEA-γGlu-C18 diacid])PEEDASEEETQRYYVSLRHYYNWLTRQRY-NH2
SMILES: CC(C)CC(=O)N[C@@H](C)C(=O)N1CCC[C@H]1C(=O)N[C@@H](CCC(=O)O)C(=O)N[C@@H](CCCCNC(=O)COCCOCCNC(=O)COCCOCCNC(=O)CC[C@H](NC(=O)CCCCCCCCCCCCCCCCC(=O)O)C(=O)O)C(=O)N1CCC[C@H]1C(=O)N[C@@H](CCC(=O)O)C(=O)N[C@@H](CCC(=O)O)C(=O)N[C@@H](CC(=O)O)C(=O)N[C@@H](C)C(=O)N[C@@H](CO)C(=O)N[C@@H](CCC(=O)O)C(=O)N[C@@H](CCC(=O)O)C(=O)N[C@@H](CCC(=O)O)C(=O)N[C@H](C(=O)N[C@@H](CCC(N)=O)C(=O)N[C@@H](CCCNC(=N)N)C(=O)N[C@@H](Cc1ccc(O)cc1)C(=O)N[C@@H](Cc1ccc(O)cc1)C(=O)N[C@H](C(=O)N[C@@H](CO)C(=O)N[C@@H](CC(C)C)C(=O)N[C@@H](CCCNC(=N)N)C(=O)N[C@@H](Cc1c[nH]cn1)C(=O)N[C@@H](Cc1ccc(O)cc1)C(=O)N[C@@H](Cc1ccc(O)cc1)C(=O)N[C@@H](CC(N)=O)C(=O)N[C@@H](Cc1c[nH]c2ccccc12)C(=O)N[C@@H](CC(C)C)C(=O)N[C@H](C(=O)N[C@@H](CCCNC(=N)N)C(=O)N[C@@H](CCC(N)=O)C(=O)N[C@@H](CCCNC(=N)N)C(=O)N[C@@H](Cc1ccc(O)cc1)C(N)=O)[C@@H](C)O)C(C)C)[C@@H](C)O
B4: Compound 209 (peptide)
peptide: Isovaleryl-APEK([AEEA-AEEA-γGlu-C18 diacid])PEEDSEPEELQRYYVSLRHYYNWLTRQRY-NH2
SMILES: CC(C)CC(=O)N[C@@H](C)C(=O)N1CCC[C@H]1C(=O)N[C@@H](CCC(=O)O)C(=O)N[C@@H](CCCCNC(=O)COCCOCCNC(=O)COCCOCCNC(=O)CC[C@H](NC(=O)CCCCCCCCCCCCCCCCC(=O)O)C(=O)O)C(=O)N1CCC[C@H]1C(=O)N[C@@H](CCC(=O)O)C(=O)N[C@@H](CCC(=O)O)C(=O)N[C@@H](CC(=O)O)C(=O)N[C@@H](CO)C(=O)N[C@@H](CCC(=O)O)C(=O)N1CCC[C@H]1C(=O)N[C@@H](CCC(=O)O)C(=O)N[C@@H](CCC(=O)O)C(=O)N[C@@H](CC(C)C)C(=O)N[C@@H](CCC(N)=O)C(=O)N[C@@H](CCCNC(=N)N)C(=O)N[C@@H](Cc1ccc(O)cc1)C(=O)N[C@@H](Cc1ccc(O)cc1)C(=O)N[C@H](C(=O)N[C@@H](CO)C(=O)N[C@@H](CC(C)C)C(=O)N[C@@H](CCCNC(=N)N)C(=O)N[C@@H](Cc1c[nH]cn1)C(=O)N[C@@H](Cc1ccc(O)cc1)C(=O)N[C@@H](Cc1ccc(O)cc1)C(=O)N[C@@H](CC(N)=O)C(=O)N[C@@H](Cc1c[nH]c2ccccc12)C(=O)N[C@@H](CC(C)C)C(=O)N[C@H](C(=O)N[C@@H](CCCNC(=N)N)C(=O)N[C@@H](CCC(N)=O)C(=O)N[C@@H](CCCNC(=N)N)C(=O)N[C@@H](Cc1ccc(O)cc1)C(N)=O)[C@@H](C)O)C(C)C
B5: Compound 210 (peptide)
peptide: Isovaleryl-APEK([AEEA-AEEA-γGlu-C18 diacid])IEEEASPEELQRYYVSLRHYYNWLTRQRY-NH2
SMILES: CC[C@H](C)[C@H](NC(=O)[C@H](CCCCNC(=O)COCCOCCNC(=O)COCCOCCNC(=O)CC[C@H](NC(=O)CCCCCCCCCCCCCCCCC(=O)O)C(=O)O)NC(=O)[C@H](CCC(=O)O)NC(=O)[C@@H]1CCCN1C(=O)[C@H](C)NC(=O)CC(C)C)C(=O)N[C@@H](CCC(=O)O)C(=O)N[C@@H](CCC(=O)O)C(=O)N[C@@H](CCC(=O)O)C(=O)N[C@@H](C)C(=O)N[C@@H](CO)C(=O)N1CCC[C@H]1C(=O)N[C@@H](CCC(=O)O)C(=O)N[C@@H](CCC(=O)O)C(=O)N[C@@H](CC(C)C)C(=O)N[C@@H](CCC(N)=O)C(=O)N[C@@H](CCCNC(=N)N)C(=O)N[C@@H](Cc1ccc(O)cc1)C(=O)N[C@@H](Cc1ccc(O)cc1)C(=O)N[C@H](C(=O)N[C@@H](CO)C(=O)N[C@@H](CC(C)C)C(=O)N[C@@H](CCCNC(=N)N)C(=O)N[C@@H](Cc1c[nH]cn1)C(=O)N[C@@H](Cc1ccc(O)cc1)C(=O)N[C@@H](Cc1ccc(O)cc1)C(=O)N[C@@H](CC(N)=O)C(=O)N[C@@H](Cc1c[nH]c2ccccc12)C(=O)N[C@@H](CC(C)C)C(=O)N[C@H](C(=O)N[C@@H](CCCNC(=N)N)C(=O)N[C@@H](CCC(N)=O)C(=O)N[C@@H](CCCNC(=N)N)C(=O)N[C@@H](Cc1ccc(O)cc1)C(N)=O)[C@@H](C)O)C(C)C
B6: Compound 212 (peptide)
peptide: Isovaleryl-APEK([AEEA-AEEA-γGlu-C18 diacid])PEEDTAPEELQRYYVSLRHYYNWLTRQRY-NH2
SMILES: CC(C)CC(=O)N[C@@H](C)C(=O)N1CCC[C@H]1C(=O)N[C@@H](CCC(=O)O)C(=O)N[C@@H](CCCCNC(=O)COCCOCCNC(=O)COCCOCCNC(=O)CC[C@H](NC(=O)CCCCCCCCCCCCCCCCC(=O)O)C(=O)O)C(=O)N1CCC[C@H]1C(=O)N[C@@H](CCC(=O)O)C(=O)N[C@@H](CCC(=O)O)C(=O)N[C@@H](CC(=O)O)C(=O)N[C@H](C(=O)N[C@@H](C)C(=O)N1CCC[C@H]1C(=O)N[C@@H](CCC(=O)O)C(=O)N[C@@H](CCC(=O)O)C(=O)N[C@@H](CC(C)C)C(=O)N[C@@H](CCC(N)=O)C(=O)N[C@@H](CCCNC(=N)N)C(=O)N[C@@H](Cc1ccc(O)cc1)C(=O)N[C@@H](Cc1ccc(O)cc1)C(=O)N[C@H](C(=O)N[C@@H](CO)C(=O)N[C@@H](CC(C)C)C(=O)N[C@@H](CCCNC(=N)N)C(=O)N[C@@H](Cc1c[nH]cn1)C(=O)N[C@@H](Cc1ccc(O)cc1)C(=O)N[C@@H](Cc1ccc(O)cc1)C(=O)N[C@@H](CC(N)=O)C(=O)N[C@@H](Cc1c[nH]c2ccccc12)C(=O)N[C@@H](CC(C)C)C(=O)N[C@H](C(=O)N[C@@H](CCCNC(=N)N)C(=O)N[C@@H](CCC(N)=O)C(=O)N[C@@H](CCCNC(=N)N)C(=O)N[C@@H](Cc1ccc(O)cc1)C(N)=O)[C@@H](C)O)C(C)C)[C@@H](C)O

target: T1, human neuropeptide Y2 receptor; test: radioligand competition (125I-PYY(1-36)), hNPY2R membranes
How it was run: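 Commercial human Y2 receptor membranes (0.5 μg protein/well) were incubated with peptide for 2 h at room temperature in 50 mM HEPES, 5 mM MgCl₂, 1 mM CaCl₂, pH 7.4, with 0.2% ovalbumin. Bound radioligand was separated on PEI-soaked GF/C filters and counted by scintillation, and IC₅₀ came from nonlinear sigmoidal regression.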

Binder	Ki
B1	1.9 nM
B2	1.07 nM
B3	3.8 nM
B4	8.07 nM
B5	10.5 nM
B6	20.3 nM
